Results on 25 molecules are retold here after PMC8299219 (Cell, 2021).

Substitutions are numbered along the chain they refer to.

In this assay the target is SARS-CoV-2 S ectodomain trimer, prefusion-stabilized, 2P variant (Wrapp et al., 2020) (SARS-CoV-2, Wuhan-Hu-1, UniProt P0DTC2, stabilised).

B1: G32L2 (antibody, V domains shown)
VH: QVQLVESGGGVVQPGTSLRLSCAASGFTFSNYDIHWVRQAPGKGLEWVAVISYDGSNKYYADSVKGRFTISRDNSKNTLYLQMNSLRAEDTAVYYCAKDLVLRYFDWLFDGPDYWGQGTLVTVSS
VL: SYELTQPPSVSVSPGQTARITCSGDALPKKYAYWYQQKSGQAPVLVIYEDSKRPSGIPERFSGSSSGTMATLTISGAQVEDEADYYCYSTDSSGNHGVFGGGTKLTVL
For B1, the binding result is listed as “binds”.

B2: C81B10 (antibody, V domains shown)
VH: QLQLQESGPGLVKPSQTLSLTCTVSGGSISSGDYYWSWIRQPPGKGLEWIGYIYYSGSTYYNPSLKSRVTISVDTSKNQFSLKLSSVTAADTAVYYCARVRGTYYYVSGSYYPRPLYYYYMDVWGKGTTVTVSS
VL: not shown
Regarding B2, the binding result was “binds”.

B3: C163E5 (antibody, V domains shown)
VH: QVQLQESGPGLVKPSETLSLTCTVSGASIRSFHWSWIRQPAGKGLEWIGRLLTTGSTNYNRSLKSRVTMSVDTSKNQFSLKLSSVTAADTAVYYCSRGTEMNMEVPGVVTGSEFFDYWGQGTLVTVSS
VL: EIVLTQSPATLSLSPGERATLSCRASQSVSSYLAWYQRKPGQAPRLLIYDASNRATGIPARFSGSGSGTDFTLTISSLEPEDFAVYYCQQRRNWPETFGQGTKLEIK
With B3, the binding result was “binds”.

B4: C12B10 (antibody, V domains shown)
VH: EVQLVESGGGLVQPGGSLRLSCAASGFTFSSYAMHWVRQAPGKGLEYVSAINSYGGSTYYANSVKGRFTISRDNSKNTLYLQMGSLRAEDMAVYYCAREVQGVATMDGAFDIWGQGTMVTVSS
VL: SYELTQPPSVSVAPGKTARITCGGNNIGSKSVHWYQQKPGQAPVLVIYYDSDRPSGIPERFSGSNSGNTATLTISRVEAGDEADYYCQVWDSSSDPHWVFGGGTKLTVL
Consider B4, for which the binding result was “binds”.

B5: C12E9 (antibody, V domains shown)
VH: QVQLVQSGAEVKKPGSSVKVSCKASGGTFSSYAISWVRQAPGQGLEWMGGIIPIFGTASYAQKFQGRVTITADESTSTAYMELSSLRSEDTAVYYCARGSVGLGGDCYQCGYYFDYWGQGTLVTVSS
VL: not shown
Turning to B5, the binding result is given as “binds”.

B6: C12D1 (antibody, V domains shown)
VH: EVQLVQSGAEVIKPGESLKISCKGSGYSFTSYWIGWVRQMPGKGLEWMGIIYPGDSDTRYSPSFQGQVTISADKSISTAYLQWSSLKASDTAIYYCARLGGSVTNIEFIDYWGQGTLVTVSS
VL: not shown
As for B6, the binding result is listed as “binds”.

B7: C81G9 (antibody, V domains shown)
VH: EVQLVESGGGLVQPGGSLRLSCAASGFTFSSYSVNWVRQAPGKGLEWVSYISSSSLTIYYADSVKGRFIISRDNAKNSLYLQMNSLRDEDTAVYHCAREGPSSSWFSYYYMDVWGKGTTVTVSS
VL: QSALTQPASVSGSPGQSITISCTGTSSDVGSYNLVSWYQQHPGKAPKLMIYEGSKRPSGVSNRFSGSKSGNTASLTISGLQAEDEAEYYCCSYAGSSTSPYVFGTGTKVTAL
Regarding B7, the binding result is recorded as “binds”.

B8: C93D6 (antibody, V domains shown)
VH: EVQLVESGGGLVKPGGSLRLSCAASGFTFSSYSMNWVRQAPGKGLEWVSSISSSSSYIYYADSVKGRFTISRDNAKNSLYLQMNSLRAEDTAVYYCASDLMEDYDFLSGSATSPFDYWGQGTLVTVSS
VL: not shown
B8: the binding result is “binds”.

B9: C29C2 (antibody, V domains shown)
VH: EVQLVQSGAEVKKPGESLKISCKGSGYSFTSYWIGWVRQMPGKGLEWMGIIYPGDSDTRYSPSFQGQVTISADKSISTAYLQWSSLKASDTAMYYCARLPVSTHPLYYYFGMDVWGQGTTVTVSS
VL: not shown
On to B9, for which the binding result was “binds”.

B10: C83B6 (antibody, V domains shown)
VH: EVQLVESGGGLVKPGGSLRLSCAASGFTFSSYSMNWVRQAPGKGLEWVSYISSSSSTIYYADSVKGRFTISRDNAKNSLYLQMNSLRDEDTAVYYCARDRGGYGPYYYGMDVWGQGTTVTVSS
VL: not shown
On to B10, for which the binding result is “binds”.

B11: G32Q2 (antibody, V domains shown)
VH: EVQLLESGGGLVQPGGSLRLSCAASGFTFSNYAMSWVRQAPGKGLEWVSAISGSGSTTYYADSVKGRFTISRDNSKNTLFLQVNSLRAEDTAVYYCAKGERIIMMVVLTLFDYWGQGTLVTVSS
VL: QSVLTQPPSVSAAPGQKVTISCPGSSSNIGKNYVSWYQQLPGTAPKLLIYDNNKRPSGIPDRFTGSKSGTSATLDITGLQTGDEADYYCGTWDSSLSAGWVFGGGTKLTVL
Regarding B11, the binding result is on record as “binds”.

B12: C53E4 (antibody, V domains shown)
VH: QVQLVQSGAEVKKPGASVKVSCKASGYTYTSYGISWVRQAPGRGLEWMGWISAYNGNTNYAQKLQGRVTMTTDTSTSTAYMELRSLRSDDTAVYYCARDQGLWYYYDSSGFALDYWGQGTLVTVSS
VL: EIVLTQSPATLSLSPGERATLSCRASQSVSSYLAWYQQKPGQAPRLLIYDASNRATGIPARFSGSGSGTDFTLTISSLEPEDFAVYYCQQRSNWPRYTFGQGTKLEIK
For B12, the binding result is “binds”.

B13: C53E6 (antibody, V domains shown)
VH: EVQLVESGGGLVKPGGSLKLSCAASGFTFSSYSMNWVRQAPGKGLEWVSSISSSSSYIYYADSVKGRFTISRDNAKNSLYLQMNSLRAEDTAVYYCARASYDFWSGQDHWFDPWGQGTLVTVSS
VL: B12 VL with R61K, R96P, Y97I, K104R
Consider B13, for which the binding result was “binds”.

B14: C93D1 (antibody, V domains shown)
VH: QVQLVESGGGVVQPGRSLRLSCAASGFTFSNYGMHWVRQAPGKGLEWVAVISYDGSNKYYADSVKGRFTISRDNSKNTLYLQMNSLRAEDTAVYYCAKGSYFHSNYWDYFDYWGQGTLVTVSS
VL: not shown
In the case of B14, the binding result was “binds”.

B15: C81F5 (antibody, V domains shown)
VH: QVQLVESGGGVVQPGRSLRLSCAASGFTFSNSGMHWVRQAPGKGLEWVAVISYDGSHKYYADSVKGRFTISRDNSKNTLYLQMNTLRAEDTAVYYCAKEESAVAGTGVPYYYYYYMDVWGKGTTVTVSS
VL: not shown
On to B15, for which the binding result is “binds”.

B16: C81G11 (antibody, V domains shown)
VH: QVQLQESGPGLVKPSGTLSLTCAVSGGSISSSNWWSWVRQPPGKGLEWIGEIYHSGNTNYNPSLTSRVTLSVDKSKNQFSLKLSSVTAADTALYYCAGRFCGSTSCPNWFDPWGQGTLVTVSS
VL: QSALTQPASVSGSPGQSITISCTGTSSDVGSYNLVSWYQQHPGKAPKLMIYEGSKRPSGVSNRFSGSKSGNTASLTISGLQAEDEADYYCCSYAGSSTWVFGGGTKLTVL
With B16, the binding result is “binds”.

B17: C12D6 (antibody, V domains shown)
VH: QLQLQETGPGLVKPSGTLSLTCAVSGDSISSSDWWTWVRQPPGKGLEWIGEIYHSGSTNYNPSLKSRVTISVDKSKNQFSLKLSSVTAADTAVYYCARRGRAASERGTGNFDYWGQGTLVTVSS
VL: B16 VL with G53V
For B17, the binding result is given as “binds”.

B18: C12I11 (antibody, V domains shown)
VH: QVQLQESGPGLVKPSGTLSLTCAISGGSISSSNWWSWVRQPPGKGLEWIGEIYHSGSTNYNPSLKSRVTISVDKSKNQFSLKLSSVTAADTAVYYCARGALVPAARLNAFDIWGQGTMVTVSS
VL: B16 VL with W99Y, G103T, L107V
As for B18, the binding result was “binds”.

B19: C81A3 (antibody, V domains shown)
VH: QVQLQESGPGLVKPSGTLSLTCAVSGGSISSSNWWSWVRQPPGKGLEWIGEIYHSGSTNYNPSLKSRVTISVDKSKNQFSLKLSSVTAADTAVYYCARRYCSGGSCSGFDYWGQGTLVTVSS
VL: B16 VL with Q40H, S96F
For B19, the binding result is on record as “binds”.

B20: C12J11 (antibody, V domains shown)
VH: QVQLQESGPGLVKPSGTLSLTCAVSGGSISSSNWWSWVRQPPGKGLEWIGEIYHSGSTNYNPSLKSRVTISVDKSKNQFSLKLSSVTAADTAVYYCAIRASGYYNWFDPWGQGTLVTVSS
VL: B16 VL with C91Y
On to B20, for which the binding result is “binds”.

B21: C12I5 (antibody, V domains shown)
VH: B20 VH with I98R, R99G, A100W, S101G, G102S, Y103S, Y104S, N105Y
VL: B16 VL
Take B21: the binding result is “binds”.

B22: G32L7 (antibody, V domains shown)
VH: EVQLLESGGGSVQPGGSLRLSCAASGFTFSSYAMSWVRQAPGKGLEWVSVISGSGGSTYYADSVKGRFTISRDNSKNTLYLQMNSLRAEDTAVYYCAKAERITMLVVVTLIDYWGQGTLVTVSS
VL: QSVLTQPPSVSAAPGQKVTISCSGSSSNIGNNYVSWYQQLPGTAPKLLIYDNNKRPSGIPDRFSGSKSGTSATLGITGLQTGDEADYYCGTWDSSLSAVVFGGGTKLTVL
In the case of B22, the binding result is listed as “binds”.

B23: C41N3 (antibody, V domains shown)
VH: EVQLVESGGGLVQPGRSLRLSCAASGFTFDDYAMHWVRQAPGKGLEWVSGISWQSGSIGYADSVKGRFTISRDNAKNSLYLQMNSLRAEDTALYYCAKDPGYDSSGYYYDYWGQGALVTVSS
VL: not shown
For the molecule B23, the binding result is “binds”.

B24: C83A7 (antibody, V domains shown)
VH: QVQLQESGPGLVKPSETLSLTCTVSGGSVSSGSYYWSWIRQPPGKGLEWIGYIYYSGRTNYNPSLKSRVTISVDTSKNQFSLKLSSVTAADTAVYYCARTVITMIVGNWYFDLWGRGTLVTVSS
VL: not shown
On to B24, for which the binding result is on record as “binds”.

B25: C12C6 (antibody, V domains shown)
VH: QVQLVESGGGVVQPGRSLRLSCAASGFTFSSYAMHWVRQAPGKGLEWVAVISYDGSNKHYADSVKGRFTISRDNSKNTLYLQMNSLRAEDTAVYYCARDPQYCSSTSCSMGVGWFDPWGQGTLVTVSS
VL: SYELTQPPSVSVAPGKTARITCGGNNIGSKSVHWYQQKPGQAPVLVIYYDSDRPSGIPERFSGSNSGNTATLTISRVEAGDEADYYCQVWDSSSDHAYWVFGGGTKLTVL
Take B25: the binding result is listed as “binds”.
